Test results: patent publication US10441636B2, “Method of diagnosis and treatment” (LA TROBE UNIVERSITY, priority 2012, dated 2019)
“Also recorded” adds a separate entry of the source.

Assays:
4T1.2 tumours [1] = test: Early treatment setting after primary tumour resection: poly I:C, doxorubicin or combination (bioluminescence imaging); type: in vivo, Balb/c mice; conditions: treatment from 2 days after resection for 2 weeks; 25 ug poly I:C every 2 days, 4 mg/kg doxorubicin every 4 days; bioluminescence (FIG. 21)
Procedure: 4T1.2 cells were inoculated into the 4th mammary gland of Balb/c mice. Primary tumours were resected when they reached 0.2 g and 2 days later treatment was started for a period of 2 weeks. Mice were treated with vehicle alone, 25 ug poly I:C every 2 days, 4 mg/kg doxorubicin every 4 days, or the combination of poly I:C and doxorubicin. Metastatic burden was visualised in all mice at a set time point using bioluminescence imaging.

4T1.2 tumours [2] = test: 4T1.2 tumour bearing mice treated with poly I:C (bioluminescence imaging, Q-PCR of tumour burden); type: in vivo
Procedure: Mice bearing 4T1.2 cells were treated with 25 ug poly I:C 3× weekly by tail vein injection beginning at day 3. (a) Bioluminescence imaging of 4T1.2 primary tumour burden prior to surgical resection (b) Bioluminescence imaging of metastatic burden in mice treated with vehicle or poly I:C (c) Q-PCR detection of 4T1.2 tumour burden in femur, spine and lung of mice at day 33.
These techniques have previously been described by Eckhardt and colleagues (Eckhardt 2005). Briefly, mice were inoculated with 10^5 cells into the 4th mammary fatpad of female 6-8 week old Balb/c mice. Tumour volumes were monitored by caliper measurement 3 times weekly. […] Metastatic burden in secondary tissues was detected by a Q-PCR based assay using a reporter sequence inserted into the genome of the 4T1.2 cells. Survival assays were conducted in the same way except at day 22 the mice were anaesthetized using either a combination of ketamine hydrochloride (1.2 m/g of mouse)/xylaxil hydrochloride (3 μg/g of mouse) or 2.5% aerosol isoflurane in 100% oxygen and the primary tumour was surgically removed and weighed. […] At time of sacrifice, all mice had evidence of bone and lung metastasis unless otherwise stated. Anti-CD8 (clone 53-6.7, produced in house) and the control antibody rat IgG2a (clone 2A3, produced in house) were injected intraperitoneally at 50 μg per dose on days −1, 0, 1, 4, 7 and subsequently every 7 d. Rabbit anti-asialo GM1 was purchased from Wako chemicals and injected intraperitoneally according to the manufacturer's instructions.

4T1.2 tumours [3] = test: Metastasis-free survival assay with primary tumour resection, IFN-α1 treatment; type: in vivo, Balb/c mice
Text: (§1) FIG. 6: The effect of type I IFN treatment on metastasis. (a) Real-time RT-PCR analysis of 4T1.2 cells treated with […] recombinant IFN-α1. (n=3, * p<0.05, error bars are S.E.M.). (b) Proliferation of 4T1.2 cells treated with 1000 IU/mL of recombinant […]. (n=6, error bars are S.E.M.). (c) Primary tumour volume, n=15. (d) Q-PCR detection of metastatic 4T1.2 tumour burden in spine (at day 33 post tumour cell inoculation) of mice treated with IFNα1 or vehicle. (e) H&E stained sections of spines and femurs from 4T1.2 bearing mice treated with IFN-α1 or vehicle (Scale bar=50 T=Tumour). (f) Kaplan-Meier disease-free survival analysis of mice bearing 4T1.2 tumours that were subsequently resected. Mice were treated with 10^5 IU of recombinant IFN-α1 or saline from day 3. (n=15).
Female Balb/c mice (6-8 weeks old) were obtained from ARC (Perth, WA, Australia) or Walter and Eliza Hall Institute (Kew, Vic, Australia) breeding facilities. […] Metastasis was assessed using a previously described assay (Eckhardt et al. 2005, supra). […]
These techniques have previously been described by Eckhardt and colleagues (Eckhardt 2005). […] Tumour volumes were monitored by caliper measurement 3 times weekly. […] Metastatic burden in secondary tissues was detected by a Q-PCR based assay using a reporter sequence inserted into the genome of the 4T1.2 cells. […]

[4] = system: 4T1.2 tumour bearing mice; test: Immune cell populations (flow cytometry) and G-CSF (ELISA) in 4T1.2 tumour bearing mice treated with IFN-α1; type: in vivo, Balb/c mice
Procedure: FIG. 18: Measurement of MDSC and G-CSF in blood of 4T1.2 tumour bearing mice treated with IFNα1. Mice were treated with IFN-al or saline control one day after 4T1.2 tumour cell inoculation into the mammary gland. Five days after tumour inoculation, MDSC percentage (a) and absolute numbers (b) were measured, along with G-CSF levels by ELISA (c).
FIG. 19: Changes in immune cells in the mammary gland, lung and bone. a) Mice were treated with IFN-α1 or saline control on day 1, 3 and 5 after 4T1.2 tumour cell inoculation into the mammary gland. Ten days after tumour inoculation MDSC, NK, CD4^+ and CD8^+ T cell percentages were measured in fatpad/primary tumour, lung and bone marrow. N=5. Difference between treatment groups was assessed using an unpaired T test and significance is indicated. b) Cells isolated from the mammary gland, lung and bone marrow of naïve Balb/c mice were stained for DX5, TCR, CD11b and CD27. Shown are representative profiles for CD11b and CD27 expression on gated DX5^+TCR. Percentage of CD11b^low/high and/or CD27^low/high are indicated.
(§2) 66cl4 and 4T1 cell lines were kindly provided by Dr. Fred Miller (Karmanos Cancer Institute, Detroit, Mich.). Derivation of the 4T1.2 line has previously been described (Eckhardt et al. 2005, supra; Lelekakis et al. 1999, supra). Recombinant Interferon-α1 was used at a dose of 1000 IU/mL. Interferon-α receptor blocking antibody (MAR1-5A3) was used at a concentration of 10 μg/mL (Leinco, St Louis, Mo.). G-CSF ELISA was performed according to manufacturer's instructions (R&D Systems, Minneapolis, Minn., USA). Flow cytometry was performed using standard techniques. MDSCs were assessed using Ly6G (clone IA8) and CD11b (clone M1/70) specific antibodies (BD Pharmingen, Franklin Lakes, N.J., USA) at a dilution of 1:200. Flow Cytometry was performed using an LSR-II (BD Pharmingen, San Jose, Calif.). Real-time RT-PCR was performed using standard techniques. In vitro proliferation was assessed using a sulforhodamine B binding assay as previously described (Eckhardt et al. 2005, supra). Immunohistochemistry was performed using standard techniques, using α-mouse Irf7 (Zymed/Invitrogen, Carlsbad, Calif., USA) α-human Irf7 (BD Pharmingen, Franklin Lakes, N.J., USA) at a concentration of 5 μg/mL.

4T1.2 tumours [5] = test: Mouse metastasis assay, 4T1.2 mammary tumours, IFN-α1 treatment; type: in vivo, Balb/c mice
Text: as §1
Female Balb/c mice (6-8 weeks old) were obtained from ARC (Perth, WA, Australia) or Walter and Eliza Hall Institute (Kew, Vic, Australia) breeding facilities. Female NSG mice were obtained from WEHI breeding facility under license from The Jackson Laboratory and Balb/c Ifnar1^−/− (Hwang et al. 1995, supra) were bred in-house. Recombinant IFN-α1 was injected intraperitoneally 3 times weekly at a dose of 10^5 IU/dose. All other mouse assays were performed using standard techniques. Metastasis was assessed using a previously described assay (Eckhardt et al. 2005, supra). Mouse investigations were performed with the approval of the Peter MacCallum Animal Ethics Experimentation Committee.
These techniques have previously been described by Eckhardt and colleagues (Eckhardt 2005). Briefly, mice were inoculated with 10^5 cells into the 4th mammary fatpad of female 6-8 week old Balb/c mice. Tumour volumes were monitored by caliper measurement 3 times weekly. […] Metastatic burden in secondary tissues was detected by a Q-PCR based assay using a reporter sequence inserted into the genome of the 4T1.2 cells. […]

4T1.2 cells [6] = test: In vitro proliferation of 4T1.2 cells (sulforhodamine B binding assay); type: cell-based, mouse; conditions: 1000 IU/mL recombinant IFN-α1 (FIG. 6b)
Text: as §1
66cl4 and 4T1 cell lines were kindly provided by Dr. Fred Miller (Karmanos Cancer Institute, Detroit, Mich.). Derivation of the 4T1.2 line has previously been described (Eckhardt et al. 2005, supra; Lelekakis et al. 1999, supra). Recombinant Interferon-α1 was used at a dose of 1000 IU/mL. […] MDSCs were assessed using Ly6G (clone IA8) and CD11b (clone M1/70) specific antibodies (BD Pharmingen, Franklin Lakes, N.J., USA) at a dilution of 1:200. […] In vitro proliferation was assessed using a sulforhodamine B binding assay as previously described (Eckhardt et al. 2005, supra). […]

4T1.2 cells [7] = test: Real-time RT-PCR of 4T1.2 cells treated with recombinant IFN-α1; type: cell-based, mouse; conditions: 4T1.2 cells in vitro, recombinant IFN-α1 1000 IU/mL, real-time RT-PCR (FIG. 6a)
Text: as §1
as §2, with “Immunohistochemistry was performed using standard techniques, using α-mouse Irf7 (Zymed/Invitrogen, Carlsbad, Calif., USA) α-human Irf7 (BD Pharmingen, Franklin Lakes, N.J., USA) at a concentration of 5 μg/mL.” left out
Expression level of each gene was calculated based on the cycle threshold (CT), set within the linear range of DNA amplification. Expression level (arbitrary units) was calculated as relative transcript abundance (RTA) by: RTA=10000/(2^ΔCT), where ΔCT=CT (gene of interest)−CT(GAPDH).

[8] = IFN-α1 on day 1, 3 and 5, measured ten days after tumour inoculation (FIG. 19a)

Molecule | metastasis at end point (4T1.2 tumours [1]) | primary tumour growth (4T1.2 tumours [2]; 25 ug poly I:C 3x weekly by tail vein injection from day 3, bioluminescence imaging (FIG. 20a)) | metastatic burden in lung and bone (4T1.2 tumours [2]; 25 ug poly I:C 3x weekly, PCR detection of tumour cell markers at day 33 (FIG. 20c)) | metastasis to multiple organs (4T1.2 tumours [2]; 25 ug poly I:C 3x weekly, bioluminescence after primary tumour resection (FIG. 20b)) | metastasis-free survival (4T1.2 tumours [3]; 10^5 IU recombinant IFN-α1 or saline for five weeks, primary tumour resection at 3 weeks (FIG. 6f)) | growth of primary tumours (4T1.2 tumours [3]; survival study, treatment for five weeks, primary tumour resection at 3 weeks) | G-CSF levels in the peripheral blood ([4]; 4T1.2 tumour bearing mice, IFN-α1 vs saline, ELISA (FIG. 18c)) | MDSC accumulation in the peripheral blood ([4]; 4T1.2 tumour bearing mice, IFN-α1 vs saline, five days after tumour inoculation (FIG. 18), listed as IFN) | CD11b+Ly6G+ MDSC in the bone marrow [4, 8] | NK cells at the primary site or in lungs [4, 8] | NK cells in the bone marrow [4, 8] | metastasis to the spine and femur (4T1.2 tumours [5]; 10^5 IU/dose i.p. 3 times weekly, Q-PCR at day 33 and H&E, vs vehicle, P<0.007 (FIG. 6d, e)) | extent of metastasis to lung (4T1.2 tumours [5]; 10^5 IU/dose i.p. 3 times weekly, Q-PCR, endpoint day 33 (FIG. 17)) | primary tumour growth in vivo (4T1.2 tumours [5]; 10^5 IU/dose intraperitoneally 3 times weekly (FIG. 6c)) | 4T1.2 cell proliferation in vitro (4T1.2 cells [6]) | expression of Irf7 (4T1.2 cells [7]) | expression of Irf9 (4T1.2 cells [7]) | expression of STAT1 (4T1.2 cells [7])
COc1cccc2c1C(=O)c1c(O)c3c(c(O)c1C2=O)C[C@@](O)(C(=O)CO)C[C@@H]3O[C@H]1C[C@H](N)[C@H](O)[C@H](C)O1 [doxorubicin] | did not significantly impact metastasis |  |  |  |  |  |  |  |  |  |  |  |  |  |  |  |  | 
poly I:C | did not significantly impact metastasis | did not alter | significant decrease | suppressed metastasis to multiple organs; also recorded: suppresses metastasis |  |  |  |  |  |  |  |  |  |  |  |  |  | 
IFN-α1: Recombinant Interferon-α1, a type I IFN, injected intraperitoneally 3 times weekly at 10^5 IU/dose (protein, UniProt P01562 24-189, looked up) Interferon alpha-1/13: CDLPETHSLDNRRTLMLLAQMSRISPSSCLMDRHDFGFPQEEFDGNQFQKAPAISVLHELIQQIFNLFTTKDSSAAWDEDLLDKFCTELYQQLNDLEACVMQEERVGETPLMNADSILAVKKYFRRITLYLTEKKYSPCAWEVVRAEIMRSLSLSTNLQERLRRKE |  |  |  |  | significant extension | no effect | decreased | significantly decreased | significantly decreased | not observed | significantly increased | significantly reduced metastasis to the spine and femur to undetectable levels | not reduced | did not affect | did not affect | increased expression | increased expression | increased expression
